In this experiment the target is NKG2D ligands (NKG2DLs) on human TNBC cell lines. Put plainly: cell-based or functional assay.

Cytotoxicity (overnight luminescence based assay, MDA-MB-231 fLuc) data for three substances are collected here from patent US20210269501A1.

A value given as a limit tells only on which side of the number the result lay.

On to NKG2D_41BB_CD3Zeta CAR (receptor), for which the cytotoxicity (overnight luminescence based assay, MDA-MB-231 fLuc) is greater than 60%. In the case of NKG2D_CD3Zeta CAR (receptor), the cytotoxicity (overnight luminescence based assay, MDA-MB-231 fLuc) is greater than 60%.

NKG2D_CD27_CD3Zeta CAR (receptor) came in with a cytotoxicity (overnight luminescence based assay, MDA-MB-231 fLuc) greater than 60%.
